Test: label from the status in PepcDB records

Sequence: MTMKKSEITVALAGNANVGKSVIFNQLTGSNQIVGNWPGKTVERAEGYLKFQGRDIHIIDLPGIYSFSTYSMEEIVSRDFIINEGPDVVINVLDASVLERNLFFTLQLMEMEVPMVICINQVDMARQKGITIDDEKLEKVLGVPVVSTVAVKGRGLQELLRKTVEVADKKTLPRIIEYGEEIETRIGKLMDALPEIPEGYSARWVAIKLLENDPQITAMMPEDVRKLASELAAEIESIHGEPAFSVITSERYAISSMIAAGAQRQEEIKTSLSERLDGFLTHPVYGYISSVLVVGGLLLWTFVVGEFLSDTLTGIFGFFQPVDPKFSGSIESIIWNGAFGGIVAGLTLVIPFVIPFYLMLSYIENSGLLTRVAFMMDAFMRKIGLHGKALIPLILGYGCSVPAIDSTRILETHRERLLAAFAISFAPCAARTILILGLVALFVNVWWAIGLYALDLLIIFIMGKVALKALPGETTGLIMEMHSLKMPSFRVIARQTWTRTRSLIYLVFPIYIIGSALIQLLYALGWLNPISAFMAPLTVGWLKLPVFAGILLILGAVRKEFILLGLVSLVGTNIGAALTAPQILVLTLVGMLYFPCLSTIAILAREFSWRSTSIITLANLGTALFLGGLFARILPLIF
- protein production: failed

Sequence: GNNVSDADIRAIKHSERRLRNHFLPQSLFSHCGFEQAFNYKYLRIMRIAVHPQIQQQGIGAQFIHYIELLAKEQGVDFIGASFGVNPELLSFWLNAGFSTARIGFTKDKASGEHSALLIKGL
- protein production: failed

Sequence: MKKFVTRRLGRKKRRDTEIVLPTKDDDCREEHGSEVSCMEDVEEMLQELSMKGEFVFGSFWRQGDSAANDFDFGNSQYEIANYKDHRSLSLLITQDVLLER
- protein production: failed

Sequence: MEEKQERYSISEKTYQEFIDHTRVLALEERGIVQCGIATCRDFFSVYRKNQKKHMLLYTVRGKGWLESGACRYELEPGSLVVVPAGIENGFGMEDETWQIAWVFLSQHKEWSMVGENISYQLTPAPEVMYSCIQTLLRSINLSIDYGSAVGAHSVAQLELMLNMPSSESVSRNQLKLRRVFDLVQRQLHKDWSVEQLAALYPCSEPHLHRLTQQQFGRSPMAHLMRMRMEYAARLLRSTEWPIQHIGEIVGYPTSANFSTRFKAWSSMTPREFRQNGRIERDPEK
- protein production: failed

Sequence: MENQKMQEPLVYRRILLTVDEDDNTSSERAFRYATTLAHDYDVPLGICSVLESEDINIFDSLTPSKIQAKRKHVEDVVAEYVQLAEQRGVNQVEPLVYEGGDVDDVILEQVIPEFKPDLLVTGADTEFPHSKIAGAIGPRLARKAPISVIVVR
- protein production: not failed

Sequence: MKWPWWPVCVPLSKRLTLPLPSTANPVVQPSRLALACANRLFEAADNRERFLQALMTPPAYPATVLWCGEPAAALPFAALPPLPWQPPWVSRFVAGSPTGQHPLHAAGAYYCLDSSSVFAAVPLLTLPQEPSLVIDVCAAPGGKSLFAWRSLHPRYLICNETIGKRVGKLIGNLKRCRVHPVGVTSWDSEVLAAEFQGTADVVIVDAPCSGQSLLAKGQKAEGCFHPLTIRHNQRRQKRILAAATTLVRPGGWLLYSTCTFSQDENEDVAAWLMAKFPHLLPQPVPALAAYQSHLAAFPCYRLWPHQGEGAGAFTILWQHQGKGESNPLPDLGNRRAFGDRWRWQSSSQPA
- protein production: failed

Sequence: MRNSCYTSSYRQPVSLVVEWVLIGGLAMQDKLHEIRVFENFQEELFETGHVIVTTEVVEKSLNYFGNAHGGYLFTLCDQVAGLVALSTGDYAVTLQSNINYLKAGHLSDQLKIEGLCVHNGKTTKLVEVLITNQEEKILTRATFTMYVTGSISE
- protein production: failed

Sequence: MLKFNKVFMYITASALSVSLWTCTSFAQQNKTGVTTASMLNMRENPSTSTKIIDQIPNGTKVDIIETSNGWYKISYNGKTGWVYGSYVKVTETPKLTVTDETILATLNKGSTGNSSTNSSTNNSAVNNSSSQVVDETIQKPAQNAASGENTENTVVKTGIVKASALNVRQGPGTSYSIINQLSNGAKVNIIKEESGWYQIKLANGSTGWVSGTYVNVNTTIASRGGLSENSAPAASNNSDVSGVRQQVVEYAKKFLGVKYVYGGNSPSQGFDCSGFVKYVFSNFGINLERVAASQAKQGTWVSKDQLLPGDLVFFDTDGGHNYINHSGIYIGDGKFIHASSGSGKKSVVISDLTSGFYANTYMTARRVLN
- protein production: failed

Sequence: MYFDSHLHSEGLGFSELVKLKENGIKEVCSLAFFPVKPKYPQTMIDVFRKLTEFEPLRCEAAGVKMHPAVGIHPRCIPPDYEFVLGYLEEGEWVAFGEIGLELVTDEEIEVLKSQLELAKRMDVPCIIHTPRGNKLKATRKTLEILESLDFPADLAVIDHVNFETLDMVLETEYWIGLTVQPGKLSAEDAARIVAEHGPERFMLNSDAGYRDVEITTVAEAAVKIEEAVGREEMEKVARENARKFLRVLELEHHHHHH
- protein production: failed

Sequence: MTSQITANGTQRLPEPVSEHEAVPPPPPTAAGRPRPPTSQLFSRGNLASSRATGGDKSGLARPSTAVRAVGYAANCESAHQRFEQFFLEKAKQQTLSSRAAVDAIKDVNPQMKYKNLEEKIVKLLESSIVLAWQGSPNKLLNLDTKLAEALSKAKEAFSLDRTLHQFRDQHGENVYHNFDLTYAQYERSEMHIEALNTYSIMAKNKMFPHVNQLKLNMGNIYYSMGIYQKAVKMYRMALDSVPKSLSQLRLKIRENIGILFIRMGSYSDAASSFEFIMTERANIRSSIHLLLCYFALGDVEKVKLAFRRLCDVQTEAIESDMESETNIIKLQQQAEPIQQIGETDGYQSLNNEPVTGSVIKAEGGGKLNETVKFAATVKHRYVVQALKKDELAVYRNERRNAVKRSITMIVDLISPFIEDNYNDGYNWCIEIIKTSNLAWLANELELNKALVYLRQNDVHQAIETLQMYDRKSEGSMTASALTNLSFIYIKMASHCVNQLHEIGSLKNNAPGLINAGIVELGSHNLILASERFEGALQLQPMNFEARYNLGLVALAQNDYELAEERFELLKEQLMLPSSVQHSHVFYQLAKLQERRLESGLISNFTPGAALQAYLQVVGISASDIDSRLFEKVGSLYEQIQDHQEANQYYNEAYRINMSDIGIASSIGSYYIKLQATERALFYYERAVLADPNDPNLMLRIASCFRNSYLPTKQYLGLFQKIHARFPDNLTCIRALMQVTKSLELGDLYERYASEYTRLQSQQQERQSEQRYQQQRFPSAAKFTIRQSNEEHLKEVGENFNSVVHTQSPYTSILQFDPLGPPAERPKTGRPLQSRDDVDDDAEMNPESLLPI
- protein production: failed

Sequence: MAALAIIQSLNTSSYPIDIQRLKPKKMPEEPGPARNKFRSDFIVEIALIVAVAVYLVMAQGQVVGENLSFTVTGAALMALATYWTLHTIRDGLEVIALRLRPGK
- protein production: failed

Sequence: SLIGFLSDRQGFEKQYHDIDLSSFGIREGISEIIASTGFEHPNAAPIGIVMKGERPFVRLFKGSHTWENVLKEKCLASNVVYDPILFVRSTFSDLVPSEFEYVDAGEFKFPVLKEAIAWVVFECINLRNTDQSLVADLVPLNAGFNERNIKELPVPNRGFNAVLEATVHATRYQLTGEEKYLELIRHYESLASKCGGDAEKKAMKLIYEALGL
- protein production: not failed

Sequence: MSKEPIIKLDNIDVTFHQKKREINAVKDVTIHINQGDIYGIVGYSGAGKSTLVRVINLLQEPSAGKITIDDQVIYDNKVTLTSTQLREQRREIGMIFQHFNLMSQLTAEQNVAFALKHSGLSKEAKAAKVAKLLELVGLSDRAQNYPSQLSGGQKQRVAIARALANDPKILISDESTSALDPKTTKQILALLQDLNKKLGLTIVLITHEMQIVKDIANRVAVMQNGKLIEEGSVLDIFSHPRESLTQDFIKIATGIDEAMLKIEQQEVVKNLPVGSKLVQLKYAGHSTDEPLLNQIYKEFEVTANILYGNIEILDGIPVGEMVVILSGDEEKLRQACQAITDSQVQLTLLKEGGKA
- protein production: failed

Sequence: MQWRFCLTTVLGVVLSFSPSVKVQAQGLESLTYYTENYPPLNFAKEDGKPAGIAVDLLLEAAAAVNVTLNLDQIFVQPWPRSYRSALLKQDGVLFSTTRTTHRENLFNWVGPIADIKVVVLARKSSQIKVNDPIELGNYRIGVIRDDIGEQQLLQLGVPRESMVEGSTVSSLAEQLLKKRIDLLAYDERTALWWMSQDSYPVEEFETVYVLMQGSLYYAFNKNIDKSVLNDLQKGIELIKNSVNENGVTRYQAILDKY
- protein production: failed

Sequence: MVTSVSALAVAVVHSVAFAIGRRIGRYNVVDVVWGLGFVAVAVAAATLGHGDPVRRWLLLALVSTWGLRLSWHMYRKTAGQGEDPRYADLLRGATPVQALRKVFGLQGLLTLFVSFPLQLSAVTGPTPKPLLAVGGVGLAVWLVGITFEAVGDWQLWVFKSDPANRGVIMDRGLWAWTRHPNYFGDACVWWGLWLITINDWAPLATVGSPLLMTYLLVDVSGARLTERYLKGRPGFAEYQRRTAYFVPRPPRSARR
- protein production: failed

Sequence: ERLRGVSVEAPTRTGERWNALMDQIVEGVLAWHRIDSHGCVGNVDSTQENDWFSWYQQRVEVLWATLSNMNSPLMTLEDRAVLYRARAALNSLFAGFDDSSVLVHGNLTLRSMLKDPRSDQLLAMLNPGPMLWAPREYDLFRLSEEGMPSQLFYRYLSKAPVSESFVARRWLYTLWELVSRFIHTGNLDRTLFDNAAQQLLPWLE
- protein production: failed

Sequence: PGLRELCIQKAPGERLGISIRGGARGHAGNPRDPTDEGIFISKVSPTGAAGRDGRLRVGLRLLEVNQQSLLGLTHGEAVQLLRSVGDTLTVLVCDGFE
- protein production: not failed

Sequence: MLPLNDYLQPFGLVIKPMQEDLTPYLGIKVKSEAGQEKITFVAAHSPAAMAGISPQDLLLAINGVRVGAEQLSLRLKDYQANDMIQLTVFHQDLLRTVDVVLASPQANRYEVVPIADPSDSQLEHHHHHH
- protein production: not failed

Sequence: MSIISLDTRVKVGNTDYALSELFELVDQQTSDYGTSLNALKQAVVSGDLTIIQQVLQNSAAALRSLASLQNTLEKVLTLDLADPAQPEHVFIVEDSRGATELKLYKSHYTIGKADSCDIRLHSIYASRQHATLVRFLTENGEVRYRLIDGDPETSRRSANGTYVNNRSITECDLKHYDQILFGADVKATYFYLSPQFRSLTGLQDPTVSLSPDSTTEFEA
- protein production: failed

Sequence: MLPHSGRMVLIDRITRYGDDFVEAGAQVKPDHILLAGGMLPYTAFIELMAQAVGAYAGIQARKNARPVRLGFLPGTRKLEIFAQSVPVGTHLPATAHMSIQDAGVWACPTANCVGRMRRKLRPEHSFQTAFWHAPHSTCTAPNTMTEQLTPSEQAHIRRTTMTETVLITGSNRGIGKAAALEHHHHHH
- protein production: failed

Sequence: MKHGMNARKQLWIAVICMTFVVILGTIGFMTIEEISLFQAFWMTMITVLTVGYGDAVPVTQAGKVFALLIIPVGVGIVTYAIGVVAAMIIEGNLFHAVRRKKMDKQIAQLKNHIIVCGCGRVGLQVVHELQEKNIPFVVVDKDESILEQEKLLFVHGDATEDQVLHNAGILKAAGLVAIVANDAENVFITLTARGLNDTIKIVARSEKPETEEKLRRAGANKVINPSSMAGIHIAKGIANPLTVHYIDTVLYGIEQSFVIEEILVGKDSILVGKSLLESNVRNQFDVTILAISRNGDIIHNPAGQEKLKERDMIIVFGSVEKLGQFEKELQSTR
- protein production: failed

Sequence: MSEQTSQYLSDSYVEETRFGFWFLRSHTWQHHVLRVAINDLRSLFDGELPRHPVLLDAGCGQGKSFQYLRQVFAPQRLIGLDADPHSLKLSAEEARRQQMQVELIGSDCATLELADASVDLLFCHQTFHHLVEQEKALAEFYRVLKPGGYLLFAESTEAYIDTWVIRWLFRHPMHVQKSAAQYLQMIRQQGFEFGPQNVSYPYLWWSRAKDFGLLERFGLRQPPPVGQREETLVNVVARKPLNPTVVEEGLPA
- protein production: failed

Sequence: MGPTLGPAPLRGKSIPMNRTGRALTLGCLLLLQPLLAHAQAGGNSLLIPALGRCTLDPQAQDQAEALTACQKAADEGDAEAQYELGEFYYEGKGAPQDFNQALSYFEKASLQGHAQAQFKLGTMFFHGEGVPANNVQAYIVLKMAAVNGAEDALDTADEVAEHMQRDELEVATQVLGQIFRKYLMELQSADGRSPFSPLP
- protein production: failed
